The labels stand for the following.
B1: scFv; the commonest letter at each place (parent)
chain 1: EVKLDETGGGLVQPGRPMKLSCVASGFTFSDYWMNWVRQSPEKGLEWVAQIRNKPYNYETYYSDSVKGRFTISRDDSKSSVYLQMNNLRVEDMGIYYCTGSYYGMDYWGQGTSVTVS
chain 2: DVVMTQTPLSLPVSLGDQASISCRSSQSLVHSNGNTYLRWYLQKPGQSPKVLIYKVSNRFSGVPDRFSGSGSGTDFTLKISRVEAEDLGVYFCSQSTHVPWTFGGGTKLEIK

The variants in the series “fluorescein” derive from B1. The experiment in a line: Kd (Tite-Seq). The conditions noted are these: with fluorescein; format: scFv 4-4-20, heavy + light.
The variants in series [1] derive from B1. The experiment in a line: yeast surface expression (ratio to wild type); higher = more expressed. The note with it: format: scFv 4-4-20, heavy + light.

A value given as a limit tells only on which side of the number the result lay.

By Kd is commonly meant the equilibrium constant for the complex coming apart.

For chain 1 S101W Y107K, the Kd with fluorescein is at least 10 µM. Also, in series [1], the yeast surface expression came to 0.427.
On to chain 1 S30A M34Y, for which the Kd in the series with fluorescein turned out to be 0.00361 µM. In series [1], the yeast surface expression came to 0.977.
As to chain 1 D31C, the Kd in the series with fluorescein was 0.0747 µM. Moreover, the yeast surface expression in series [1] stood at 0.608.
Consider chain 1 D31H, for which the Kd with fluorescein amounted to 0.00179 µM. In series [1], the yeast surface expression is 0.763.
In the case of chain 1 D31T, the Kd with fluorescein stood at 0.00371 µM. Moreover, the yeast surface expression in series [1] was determined as 0.766.
On the same counts, the results for chain 1 S30P N35L are at least 10 µM and 0.652.
The like results for chain 1 T28Y were, in that order, 0.00325 µM and 0.919.
On the same counts, the results for chain 1 T28V are 0.00128 µM and 1.
For chain 1 T28S, the Kd with fluorescein was 0.00325 µM. Besides, the yeast surface expression in series [1] turned out to be 0.985.
On the same counts, the results for chain 1 F29K Y32N are at least 10 µM and 0.609.
As to chain 1 S101V M105H W108H, the Kd with fluorescein was at least 10 µM. In addition, the yeast surface expression in series [1] worked out at 0.3.
For the variant chain 1 T28F D31A, the dissociation constant (Kd) with fluorescein was found to be 0.0507 µM. In addition, in series [1], the yeast surface expression came out at 0.637.
As for chain 1 S30N W36D, the Kd in the series with fluorescein was at least 10 µM. In addition, in series [1], the yeast surface expression was 0.393.
For chain 1 Y32W M34W, the Kd with fluorescein is at least 10 µM. The yeast surface expression in series [1] was 0.838.
chain 1 N35A W36P: the Kd with fluorescein is at least 10 µM. Also, the yeast surface expression in series [1] was found to be 0.663.
For chain 1 G100Y G109L, the Kd with fluorescein is at least 10 µM. Besides, the yeast surface expression in series [1] was 0.306.
The like results for chain 1 S101R G109Q were, in that order, at least 10 µM and 0.201.
The like results for chain 1 D106G were, in that order, at least 10 µM and 0.655.
Consider chain 1 D106I, for which, in the series with fluorescein, the Kd is at least 10 µM. In series [1], the yeast surface expression came out at 0.577.
On to chain 1 D31I Y32F, for which the Kd in the series with fluorescein is at least 10 µM. The yeast surface expression in series [1] amounted to 0.369.
On to chain 1 D106L W108I, for which the Kd in the series with fluorescein is at least 10 µM. In series [1], the yeast surface expression came to 0.314.
chain 1 N35P W36T: the Kd in the series with fluorescein was at least 10 µM. The yeast surface expression in series [1] turned out to be 0.338.
For chain 1 Y103E M105I, the Kd with fluorescein was at least 10 µM. Besides, the yeast surface expression in series [1] is 0.9.
With chain 1 D31A W33I, in the series with fluorescein, the Kd was at least 10 µM. Besides, the yeast surface expression in series [1] was 0.872.
With chain 1 T28Y F29T W33T, the Kd with fluorescein was at least 10 µM. Besides, in series [1], the yeast surface expression turned out to be 0.745.
For chain 1 D31G W33P, the Kd with fluorescein is at least 10 µM. Also, the yeast surface expression in series [1] is 0.569.
Consider chain 1 D106F Y107D, for which the Kd with fluorescein is at least 10 µM. Besides, the yeast surface expression in series [1] turned out to be 0.296.
On to chain 1 D31L W36H, for which the Kd in the series with fluorescein was at least 10 µM. Moreover, the yeast surface expression in series [1] was determined as 0.82.
As to chain 1 M105G W108N, the Kd with fluorescein is at least 10 µM. The yeast surface expression in series [1] worked out at 0.415.
Consider chain 1 S101V D106I Y107C, for which the equilibrium dissociation constant (Kd) with fluorescein is at least 10 µM. In addition, the yeast surface expression in series [1] came out at 0.165.
Turning to chain 1 D106W W108S, in the series with fluorescein, the Kd is at least 10 µM. Also, in series [1], the yeast surface expression was determined as 0.325.
Regarding chain 1 D106W W108K, in the series with fluorescein, the Kd was at least 10 µM. Moreover, the yeast surface expression in series [1] is 0.243.
On the same counts, the results for chain 1 S30D W33N are at least 10 µM and 1.07.
With chain 1 F29E N35T, the Kd with fluorescein is at least 10 µM. Moreover, the yeast surface expression in series [1] was determined as 0.578.
Consider chain 1 Y103N G109P, for which, in the series with fluorescein, the Kd is at least 10 µM. The yeast surface expression in series [1] turned out to be 0.519.
Regarding chain 1 D31T W36C, in the series with fluorescein, the Kd was at least 10 µM. For the same variant, the yeast surface expression in series [1] turned out to be 0.789.
On to chain 1 F29A D31P, for which the Kd in the series with fluorescein is at least 10 µM. Moreover, in series [1], the yeast surface expression was determined as 0.922.
For the variant chain 1 N35R W36P, the Kd in the series with fluorescein is at least 10 µM. The yeast surface expression in series [1] came out at 0.809.
chain 1 G100P G109S: the Kd with fluorescein was at least 10 µM. Moreover, the yeast surface expression in series [1] amounted to 0.485.
On the same counts, the results for chain 1 Y103S G104N are at least 10 µM and 1.04.
For the variant chain 1 Y32S W36F, the Kd in the series with fluorescein worked out at 5.96 µM. Further, the yeast surface expression in series [1] was 0.853.
On to chain 1 T28W W33F W36P, for which the Kd in the series with fluorescein is at least 10 µM. Besides, in series [1], the yeast surface expression turned out to be 0.554.
chain 1 S101W M105I: the Kd in the series with fluorescein was at least 10 µM. Besides, the yeast surface expression in series [1] stood at 0.442.
As to chain 1 G100P D106A, the Kd in the series with fluorescein was at least 10 µM. Besides, in series [1], the yeast surface expression stood at 0.627.
With chain 1 G109F, the dissociation constant (Kd) in the series with fluorescein was at least 10 µM. Further, in series [1], the yeast surface expression turned out to be 0.305.
chain 1 M105E Y107C: the Kd with fluorescein was at least 10 µM. Further, the yeast surface expression in series [1] amounted to 0.847.
As for chain 1 Y107N G109P, the Kd in the series with fluorescein is at least 10 µM. Also, the yeast surface expression in series [1] was determined as 0.28.
For chain 1 G100M S101E W108V, the Kd with fluorescein is at least 10 µM. For the same variant, in series [1], the yeast surface expression was 0.515.
The like results for chain 1 Y102T were, in that order, 0.00894 µM and 0.932.
In the case of chain 1 Y102A, the dissociation constant (Kd) in the series with fluorescein stood at 0.00162 µM. Besides, the yeast surface expression in series [1] amounted to 1.17.
For the variant chain 1 Y102W, in the series with fluorescein, the Kd is 0.00361 µM. Besides, in series [1], the yeast surface expression was found to be 0.638.
The like results for chain 1 Y102D were, in that order, at least 10 µM and 1.16.
For the variant chain 1 Y102S, the Kd in the series with fluorescein worked out at 0.000869 µM. For the same variant, the yeast surface expression in series [1] is 1.14.
On the same counts, the results for chain 1 Y32S V37F are 8.13 µM and 0.891.
As for chain 1 Y102E Y103A, the equilibrium dissociation constant (Kd) in the series with fluorescein is 5.1 µM. The yeast surface expression in series [1] amounted to 0.993.
On the same counts, the results for chain 1 F29L W33Y are at least 10 µM and 0.732.
For the variant chain 1 G100W, the Kd with fluorescein is at least 10 µM. Further, in series [1], the yeast surface expression is 0.491.
Consider chain 1 S101G, for which the Kd in the series with fluorescein was at least 10 µM. Also, the yeast surface expression in series [1] was found to be 0.901.
